Measured values as given in patent publication US20240392271A1, “ENGINEERED CASX REPRESSOR SYSTEMS” (Scribe Therapeutics Inc., priority 2021, published 2024).
Numbering of substitutions follows the chain as printed.

What was measured:
[1] = Editing assays comparing gRNA scaffolds; details: compared with gRNA scaffold 174
[2] = system: endogenous B2M (beta-2-microglobulin) gene; experiment: B2M protein expression by HLA antibody flow cytometry, dXR constructs (Example 1, Table 14); assay type: cell-based, human; details: for % cells expressing B2M protein: HEK293T cells, % of cells counted that were positive, biological triplicates
Description: dXR variant plasmids encoding constructs having the configuration of U6-gRNA+Ef1α-NLS-GGS-dCasX491-GGS-KRAB variant-NLS (dCasX491 refers to catalytically-dead CasX 491), were transiently transfected into HEK293T cells in an arrayed 96-well format. These constructs also contained a 2× FLAG sequence, as well as sequences encoding either a gRNA scaffold 174 (SEQ ID NO: 2238) having a spacer (spacer 7.37) targeting the endogenous B2M (beta-2-microglobulin) gene or a non-targeting control (spacer 0.0), which were all cloned upstream of a P2A-puromycin element on the plasmid. Four different effector domains were tested in addition to the “naked” dCasX491 (KRAB variant domains listed in Table 9; spacer sequences listed in Table 10; sequences of additional elements listed in Table 11). The corresponding protein sequences of the dXR molecule are listed in Table 13, and the generic configuration of the dXR molecule is illustrated in FIG. 38. Positive and negative controls based on a catalytically-dead Cas9 nuclease (with or without a ZNF10 repressor) with a B2M-targeting gRNA (spacer 7.14) or a non-targeting gRNA control (spacer 0.0) were included, along with a catalytically-active CasX 491 and gRNA with the same 7.37 and 0.0 spacers. Two days after transfection, total RNA was harvested, and reverse transcribed to generate a cDNA library. Changes in gene expression were calculated by performing qPCR on the targeted gene and a housekeeping gene as reference. Relative gene expression represents the amount of target-specific RNA relative to a reference gene normalized to the non-targeting guide condition for two biological replicates. In addition to the wells used for RNA measurements, a separate set of wells was harvested seven days post-transfection and analyzed for B2M protein expression. Expression of B2M protein was determined by using an antibody that detects the B2M-dependent HLA protein complex on the cell surface. […]

human B2M locus = experiment: Editing (indel rate by NGS) at the B2M locus by catalytically-dead CasX variants (Example 8); assay type: cell-based; details: HEK293T, B2M-targeting spacer 7.37, six days after transfection
HBEGF locus = assay type: cell-based, human; details: dCasX491-KRAB lentiviral library, spacer 34.28, HEK293T, 2 ng/ml diphtheria toxin 48 hours

B1: 316 scaffold: chimeric RNA scaffold: scaffold 235 with extended stem loop of scaffold 174, SEQ ID NO: 59352, 89 nucleotides (nucleic acid)
guide: ACUGGCGCUUCUAUCUGAUUACUCUGAGCGCCAUCACCAGCGACUAUGUCGUAGUGGGUAAAGCUCCCUCUUCGGAGGGAGCAUCAGAG
modifications: listed as RNA, further chemistry not given here
For B1, the “performance in editing assays” value [1] was “comparably or more favorably than gRNA scaffold 174”.

B2: dCasX491: catalytically-dead CasX 491, SEQ ID NO: 18 (protein)
chain: QEIKRINKIRRRLVKDSNTKKAGKTGPMKTLLVRVMTPDLRERLENLRKKPENIPQPISNTSRANLNKLLTDYTEMKKAILHVYWEEFQKDPVGLMSRVAQPASKKIDQNKLKPEMDEKGNLTTAGFACSQCGQPLFVYKLEQVSEKGKAYTNYFGRCNVAEHEKLILLAQLKPEKDSDEAVTYSLGKFGQRALDFYSIHVTKESTHPVKPLAQIAGNRYASGPVGKALSDACMGTIASFLSKYQDIIIEHQKVVKGNQKRLESLRELAGKENLEYPSVTLPPQPHTKEGVDAYNEVIARVRMWVNLNLWQKLKLSRDDAKPLLRLKGFPSFPLVERQANEVDWWDMVCNVKKLINEKKEDGKVFWQNLAGYKRQEALRPYLSSEEDRKKGKKFARYQLGDLLLHLEKKHGEDWGKVYDEAWERIDKKVEGLSKHIKLEEERRSEDAQSKAALTDWLRAKASFVIEGLKEADKDEFCRCELKLQKWYGDLRGKPFAIEAENSILDISGFSKQYNCAFIWQKDGVKKLNLYLIINYFKGGKLRFKKIKPEAFEANRFYTVINKKSGEIVPMEVNFNFDDPNLIILPLAFGKRQGREFIWNDLLSLETGSLKLANGRVIEKTLYNRRTRQDEPALFVALTFERREVLDSSNIKPMNLIGVARGENIPAVIALTDPEGCPLSRFKDSLGNPTHILRIGESYKEKQRTIQAKKEVEQRRAGGYSRKYASKAKNLADDMVRNTARDLLYYAVTQDAMLIFANLSRGFGRQGKRTFMAERQYTRMEDWLTAKLAYEGLSKTYLSKTLAQYTSKTCSNCGFTITSADYDRVLEKLKKTATGWMTTINGKELKVEGQITYYNRYKRQNVVKDLSVELDRLSEESVNNDISSWTKGRSGEALSLLKKRFSHRPVQEKFVCLNCGFETHAAEQAALNIARSWLFLRSQEYKKYQTNKTTGNTDKRAFVETWQSFYRKKLKEVWKPAV
In the case of B2, the “% cells expressing B2M protein” value ([2]; B2M-targeting spacer 7.37) is reported as 85.70%, the “cells negative for the B2M protein” value ([2]; HEK293T, seven days post-transfection, B2M-targeting gRNA, HLA flow cytometry) is reported as roughly 10% and the “% cells expressing B2M protein” value ([2]; non-targeting spacer 0.0) is reported as 95.90%. For the same molecule, the “percent editing at the B2M locus measured as indel rate by NGS” value (shortened to “percent editing at the B2M locus”) (human B2M locus) was “did not exhibit editing”.

B3: DOMAIN_26749: KRAB domain derived from the king cobra, Ophiophagus hannah, SEQ ID NO: 57755; top 10 (protein)
chain: STPVTFEDVVVYFTAAEWVHLTNWQRDFYQAVMMETYELVASVAGDGVPMAEDEEGGVERPVWQYIPRGKRRRKTPQPRAD
modifications: Ophiophagus hannah
In the case of B3, the “log2 (fold change) in abundance of the KRAB domain before and after selection” value (HBEGF locus) is reported as “highest log (fold change)”.

B4: dCasX668: catalytically-dead CasX 668, SEQ ID NO: 59355 (protein)
chain: QEIKRINKIRRRLVKDSNTKKAGKTRGPMKTLLVRVMTPDLRERLENLRKKPENIPQPISNTSRANLNKLLTDYTEMKKAILHVYWEEFQKDPVGLMSRVAQPASKKIDQNKLKPEMDEKGNLTTAGFACSQCGQPLFVYKLEQVSEKGKAYTNYFGRCNVAEHEKLILLAQLKPEKDSDEAVTYSLGKFGQRALDFYSIHVTKESTHPVKPLAQIAGNRYASSPVGKALSDACMGTIASFLSKYQDIIIEHQKVVKGNQKRLESLRELAGKENLEYPSVTLPPQPHTKEGVDAYNEVIARVRMWVNLNLWQKLKLSRDDAKPLLRLKGFPSFPLVERQANEVDWWDMVCNVKKLINEKKEDGKVFWQNLAGYKRQEALRPYLSSEEDRKKGKKFARYQLGDLLLHLEKKHGEDWGKVYDEAWERIDKKVEGLSKHIKLEEERRSEDAQSKAALTDWLRAKASFVIEGLKEADKDEFCRCELKLQKWYGDLRGKPFAIEAENSILDISGFSKQYNCAFIWQKDGVKKLNLYLIINYFKGGKLRFKKIKPEAFEANRFYTVINKKSGEIVPMEVNFNFDDPNLIILPLAFGKRQGREFIWNDLLSLETGSLKLANGRVIEKTLYNRRTRQDEPALFVALTFERREVLDSSNIKPMNLIGVARGENIPAVIALTDPEGCPLSRFKDSLGNPTHILRIGESYKEKQRTIQAKKEVEQRRAGGYSRKYASKAKNLADDMVRNTARDLLYYAVTQDAMLIFANLSRGFGRQGKRTFMAERQYTRMEDWLTAKLAYEGLPSKTYLSKTLAQYTSKTCSNCGFTITSADYDRVLEKLKKTATGWMTTINGKELKVEGQITYYNRYKRQNVVKDLSVELDRLSEESVNNDISSWTKGRSGEALSLLKKRFSHRPVQEKFVCLNCGFETHAAEQAALNIARSWLFLRSQEYKKYQTNKTTGNTDKRAFVETWQSFYRKKLKEVWKPAV
With B4 the “percent editing at the B2M locus” value (human B2M locus) was “did not exhibit editing”.

B5: dCasX676: catalytically-dead CasX 676, SEQ ID NO: 59357 (protein)
chain: B4 chain with L169K
With B5 the “percent editing at the B2M locus” value (human B2M locus) was “did not exhibit editing”.

B6: dCasX527: catalytically-dead CasX 527, SEQ ID NO: 24 (protein)
chain: QEIKRINKIRRRLVKDSNTKKAGKTRGPMKTLLVRVMTPDLRERLENLRKKPENIPQPISNTSRANLNKLLTDYTEMKKAILHVYWEEFQKDPVGLMSRVAQPASKKIDQNKLKPEMDEKGNLTTAGFACSQCGQPLFVYKLEQVSEKGKAYTNYFGRCNVAEHEKLILLAQLKPEKDSDEAVTYSLGKFGQRALDFYSIHVTKESTHPVKPLAQIAGNRYASGPVGKALSDACMGTIASFLSKYQDIIIEHQKVVKGNQKRLESLRELAGKENLEYPSVTLPPQPHTKEGVDAYNEVIARVRMWVNLNLWQKLKLSRDDAKPLLRLKGFPSFPLVERQANEVDWWDMVCNVKKLINEKKEDGKVFWQNLAGYKRQEALRPYLSSEEDRKKGKKFARYQLGDLLLHLEKKHGEDWGKVYDEAWERIDKKVEGLSKHIKLEEERRSEDAQSKAALTDWLRAKASFVIEGLKEADKDEFCRCELKLQKWYGDLRGKPFAIEAENSILDISGFSKQYNCAFIWQKDGVKKLNLYLIINYFKGGKLRFKKIKPEAFEANRFYTVINKKSGEIVPMEVNFNFDDPNLIILPLAFGKRQGREFIWNDLLSLETGSLKLANGRVIEKTLYNRRTRQDEPALFVALTFERREVLDSSNIKPMNLIGVARGENIPAVIALTDPEGCPLSRFKDSLGNPTHILRIGESYKEKQRTIQAKKEVEQRRAGGYSRKYASKAKNLADDMVRNTARDLLYYAVTQDAMLIFANLSRGFGRQGKRTFMAERQYTRMEDWLTAKLAYEGLSKTYLSKTLAQYTSKTCSNCGFTITSADYDRVLEKLKKTATGWMTTINGKELKVEGQITYYNRYKRQNVVKDLSVELDRLSEESVNNDISSWTKGRSGEALSLLKKRFSHRPVQEKFVCLNCGFETHAAEQAALNIARSWLFLRSQEYKKYQTNKTTGNTDKRAFVETWQSFYRKKLKEVWKPAV
For B6, the “percent editing at the B2M locus” value (human B2M locus) was “did not exhibit editing”.
